In the supplement of paper PMC10899765:

Columns and labels:
Settings in all cases: 20 nM; 72 h
[1] = system: MCF10A; assay: 5+ nucleoli phenotype percent effect (relative to siNT 0% and siKIF11 100%); higher = more cells with five or more nucleoli
Description: (§1)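 After 72 h, cells were fixed and stained with Hoechst and anti-fibrillarin, and nucleoli per nucleus were counted with CellProfiler. Values are plate-adjusted percent effect for the one-nucleolus and 5+ nucleoli phenotypes, normalised to siNT (0%) and to the positive controls siNOL11 or siKIF11 (100%), as the mean of biological triplicates. Percent viability is the nuclei count relative to siNT.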

[2] = system: MCF10A; assay: percent viability (nuclei count relative to siNT); higher = more viable cells
Description: as §1

[3] = system: MCF10A; assay: one-nucleolus phenotype percent effect (relative to siNT 0% and siNOL11 100%); higher = more cells with one nucleolus (ribosome biogenesis inhibition)
Description: as §1

Sequence | 5+ nucleoli phenotype percent effect [1] | percent viability [2] | one-nucleolus phenotype percent effect [3]
AAUAAUAUCACAGUAGGUGU [hsa-miR-5692b] | 46.7% | 155% | -19.9%
AAUAAUAUCACAGUAGGUGUAC [hsa-miR-5692c] | 46% | 133% | -21.3%
AAUAGCUCAGAAUGUCAGUUCUG [hsa-miR-7705] | -21.4% | 71.2% | 2.1%
AAUAGGCCACGGAUCUGGGCAA [hsa-miR-1295b-3p] | 4.51% | 13.8% | 28.6%
AAUAUAACACAGAUGGCCUGU [hsa-miR-410] | 27.3% | 164% | -9.74%
AAUAUUAUACAGUCAACCUCU [hsa-miR-656] | 6.28% | 66.6% | 3.93%
AAUCACUAACCACACGGCCAGG [hsa-miR-34c-3p] | 13.7% | 70.3% | -3.51%
AAUCAGUGAAUGCCUUGAACCU [hsa-miR-5094] | -13.9% | 63.5% | -15%
AAUCAUACACGGUUGACCUAUU [hsa-miR-154-3p] | -5.26% | 67.2% | -0.992%
AAUCAUACAGGGACAUCCAGUU [hsa-miR-487a] | -7.13% | 56% | -6.53%
AAUCAUGUGCAGUGCCAAUAUG [hsa-miR-96-3p] | 24.5% | 28.5% | 1.6%
AAUCAUUCACGGACAACACUU [hsa-miR-382-3p] | 36.3% | 97.5% | -25.4%
AAUCCACGCUGAGCUUGGCAUC [hsa-miR-5092] | -4.16% | 22.3% | 14.7%
AAUCCCAAUGCUAGACCCGGUG [hsa-miR-4733-5p] | 2.55% | 19.5% | 2.5%
AAUCCUUGCUACCUGGGU [hsa-miR-500b] | 12.8% | 32.3% | -0.735%
AAUCCUUGGAACCUAGGUGUGAGU [hsa-miR-362-5p] | -6.28% | 36.6% | -1.23%
AAUCCUUUGUCCCUGGGUGAGA [hsa-miR-501-5p] | -22.9% | 33.2% | 22.1%
AAUCGGACCCAUUUAAACCGGAG [hsa-miR-5188] | 10.2% | 90.7% | -9.59%
AAUCGUACAGGGUCAUCCACUU [hsa-miR-487b] | 24.3% | 59.9% | -10.7%
AAUCUGAGAAGGCGCACAAGGU [hsa-miR-3200-5p] | -28.4% | 32.7% | 2.91%

Sequence | 5+ nucleoli phenotype percent effect [1] | percent viability [2] | one-nucleolus phenotype percent effect [3]
AAUGACACGAUCACUCCCGUUGA [hsa-miR-425-5p] | 16.6% | 74.9% | -5.83%
AAUGAGAGACCUGUACUGUAU [hsa-miR-4712-3p] | -22.6% | 7.13% | 34.8%
AAUGCACCCGGGCAAGGAUUCU [hsa-miR-501-3p] | -14.1% | 48.2% | 10.8%
AAUGCACCUGGGCAAGGAUUCA [hsa-miR-502-3p] | -10.4% | 38.5% | 0.707%
AAUGGAUUUUUGGAGCAGG [hsa-miR-1246] | -4.08% | 33% | 3.6%
AAUGGCGCCACUAGGGUUGUG [hsa-miR-652-3p] | 4.15% | 58.1% | 7.39%
AAUGGCUGUCCGUAGUAUGGUC [hsa-miR-889-5p] | -28.6% | 24.5% | 43.3%
AAUGUAAACAGGCUUUUUGCU [hsa-miR-4495] | 29.4% | 68.8% | 2.68%
AAUGUAGAGAUUGAUCAAAAU [hsa-miR-3668] | 0.392% | 86.3% | 2.57%
AAUGUGGAAGUGGUCUGAGGCAU [hsa-miR-4657] | 6.84% | 30.7% | 10.1%
AAUGUGGACUGGUGUGACCAAA [hsa-miR-4491] | 20.6% | 45.4% | -0.704%
AAUGUGUAGCAAAAGACAGA [hsa-miR-511-3p] | -40.6% | 18.7% | 55.2%
AAUGUUGGAAUCCUCGCUAGAG [hsa-miR-4781-3p] | 12.4% | 34.3% | -0.0524%
AAUGUUUUUUCCUGUUUCC [hsa-miR-4307] | 3.12% | 63.9% | -12.3%
AAUUCCCUUGUAGAUAACCCGG [hsa-miR-3938] | 51.2% | 129% | -32%
AAUUCUGUAAAGGAAGAAGAGG [hsa-miR-4778-5p] | 32.3% | 74.3% | -8.03%
AAUUGCACGGUAUCCAUCUGUA [hsa-miR-363-3p] | -15.8% | 63.9% | 5.76%
AAUUGCACUUUAGCAAUGGUGA [hsa-miR-367-3p] | 18% | 111% | -12.8%
AAUUUACUCUGCAAUCUUCUCC [hsa-miR-4699-3p] | -0.943% | 87.9% | -12.5%
AAUUUGGUUUCUGAGGCACUUAGU [hsa-miR-5002-5p] | 1.85% | 32.2% | 27.3%

Sequence | 5+ nucleoli phenotype percent effect [1] | percent viability [2] | one-nucleolus phenotype percent effect [3]
ACAAAAAAAAAAGCCCAACCCUUC [hsa-miR-3613-3p] | 16.2% | 91.6% | -10.2%
ACAAAGUACAGCAUUAGCCUUAG [hsa-miR-3973] | 0.19% | 29.3% | -6.17%
ACAAAGUGCUUCCCUUUAGAGU [hsa-miR-520h] | 11.9% | 173% | -15%
ACAAAGUGCUUCCCUUUAGAGUGU [hsa-miR-520g] | 24.4% | 77.4% | -7.99%
ACAACAGUGACUUGCUCUCCAA [hsa-miR-4709-5p] | -18.3% | 73.8% | 3.79%
ACAAGGUGUGCAUGCCUGACC [hsa-miR-4761-5p] | -24.8% | 18.1% | 53.7%
ACACACUUACCCGUAGAGAUUCUA [hsa-miR-216b-3p] | 35.7% | 59% | -17.3%
ACACAGUGCUUCAUCCACUACU [hsa-miR-3681-3p] | -3.88% | 76.6% | -4.5%
ACACAUGGGUGGCUGUGGCCU [hsa-miR-4717-3p] | 24.6% | 66.4% | -12.1%
ACACCCUCUUUCCCUACCGCC [hsa-miR-6865-3p] | 40.5% | 86.3% | -26%
ACACUGUCCCCUUCUCCCCAG [hsa-miR-6760-3p] | 56.3% | 92.8% | -27.2%
ACACUUGUUGGGAUGACCUGC [hsa-miR-6500-3p] | -37.8% | 23.8% | 22.5%
ACAGACUUGCUGUGAUGUUCA [hsa-miR-499b-5p] | -7.28% | 35.2% | 2.65%
ACAGAGGACAGUGGAGUGUGAGC [hsa-miR-6847-5p] | -1.34% | 51.1% | -1.08%
ACAGAUUCGAUUCUAGGGGAAU [hsa-miR-10b-3p] | -9.13% | 53.5% | 15.6%
ACAGCACUGCCUGGUCAGA [hsa-miR-383-3p] | -19% | 54.9% | -8.43%
ACAGCAGGCACAGACAGGCAGU [hsa-miR-214-3p] | -1.88% | 19.3% | 13.3%
ACAGCCCAGCAGUUAUCACGGG [hsa-miR-5685] | -0.657% | 57.8% | -1.32%
ACAGGAGUGGGGGUGGGACAU [hsa-miR-4433-3p] | -0.614% | 38.2% | 6.34%
